{"source": "paper PMC8543862", "about": "“Characterization of a highly xylose tolerant β-xylosidase isolated from high temperature horse manure compost” (BMC Biotechnology, 2021)", "tested_on": "O=[N+]([O-])c1ccc(O[C@@H]2OC[C@@H](O)[C@H](O)[C@H]2O)cc1", "assay": "purified protein", "assay_type": "biochemical, uncultured bacterium", "details": "50 mM sodium phosphate pH 6, 37 °C, 20 min, 1-20 mM substrate, kcat unit not given"}
{"substance": "XylP81 (uncultured bacterium)", "values": [{"measurement": "Km", "value": 5.3, "unit": "mM"}]}
